In US20210403565A1 (BIOATLA, published 2021):
Each block holds one binder with its values, some of them ahead of it.

Key:
[1] = biological target: T1, recombinant human CTLA4 extracellular domain (human, UniProt P16410 36-161); assay: ELISA, wells coated with human CTLA4, assay pH 7.4; lot 6978 in His buffer, T0; curve still rising at log 3 (OD450 below 0.2), no plateau; unit from the axis Log[ng/mL]
T1 construct: extracellular domain; also called huCTLA-4
T1 sequence (looked up): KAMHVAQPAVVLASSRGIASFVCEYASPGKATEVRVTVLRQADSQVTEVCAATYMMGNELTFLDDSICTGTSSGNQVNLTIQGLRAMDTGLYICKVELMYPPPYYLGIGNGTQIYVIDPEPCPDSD
Description: (§1) Both ELISA and FACS analysis were used to measure the binding activity. […] The amount of bound antibodies was quantified using anti-human IgG antibody conjugated to HRP. The absorbance at 450 nm in each measurement was proportional to the amount of antibodies bound. […] EC50 value (in ng/mL) for binding to human CTLA4 was determined by absorbance at 450 nm against antibody concentration with Prism variable slope of four-parameter dose-response curve, which was calculated using the nonlinear fit (variable slope, four parameters) model built into GraphPad Prism software (version 7.03). The buffers tested included His buffer (His), Tris buffer (Tris), Glutamine buffer (Glu) and no buffer.

[2] = biological target: T1, recombinant human CTLA4 extracellular …; assay: ELISA, wells coated with human CTLA4, assay pH 6.0; lot 6978 in Tris buffer, T2W; unit from the axis Log[ng/mL]
Description: as §1

[3] = biological target: T2, human CTLA4 expressed on the cell surface of CHO cells (human, UniProt P16410 36-223); assay: FACS, cells expressing human CTLA4, assay pH 6.0, MFI; lot 6978 in Tris buffer, T2W; unit from the axis Log[ng/mL]
T2 construct: whole, on cells; also called CHO-huCTLA4; huCTLA4
T2 sequence (looked up): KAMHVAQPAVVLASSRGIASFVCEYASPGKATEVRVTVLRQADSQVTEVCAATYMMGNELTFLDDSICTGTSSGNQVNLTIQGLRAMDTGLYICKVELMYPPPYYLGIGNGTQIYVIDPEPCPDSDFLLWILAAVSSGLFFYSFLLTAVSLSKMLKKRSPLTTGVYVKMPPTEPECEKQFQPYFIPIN
Description: (§2) The amount of bound antibodies was quantified using anti-human IgG antibody conjugated to fluorophores. The MFI in each reaction was proportional to the amount of antibodies bound. The EC₅₀ value (in ng/mL) for binding to human CTLA4 on cells was determined by MFI of the singlets population against antibody concentration with a Prism variable slope of four-parameter dose-response curve, which was calculated using the nonlinear fit (variable slope, four parameters) model built into GraphPad Prism software (version 7.03).

[4] = biological target: T2, human CTLA4 expressed on the cell …; assay: FACS, cells expressing human CTLA4, assay pH 6.0, MFI; lot 6978 in Glu buffer, T2W; unit from the axis Log[ng/mL]
Description: as §2

[5] = biological target: T2, human CTLA4 expressed on the cell …; assay: FACS, cells expressing human CTLA4, assay pH 7.4, MFI; lot 6972 in Tris buffer, T0; unit from the axis Log[ng/mL]
Description: as §2

[6] = biological target: T1, recombinant human CTLA4 extracellular …; assay: ELISA, wells coated with human CTLA4, assay pH 7.4; lot 6972 in Tris buffer, T0; unit from the axis Log[ng/mL]
Description: as §1

[7] = biological target: T2, human CTLA4 expressed on the cell …; assay: FACS, cells expressing human CTLA4, assay pH 7.4, MFI; lot 6972 in Glu buffer, T0; unit from the axis Log[ng/mL]
Description: as §2

[8] = biological target: T2, human CTLA4 expressed on the cell …; assay: FACS saturation, CHO-huCTLA-4, pH 7.4, MFI, titration up to about log 6.5; no unit in the table, unit from the axis Log Antibodies [ng/ml]
Description: The amount of antibodies bound on the cells was quantified using anti-human IgG antibody conjugated to fluorophores. EC₅₀ values at pH 6.0 and 7.4 for binding to cells were calculated using the nonlinear fit (variable slope, four parameters) model built into GraphPad Prism software (version 7.03). The expression levels of human CTLA4 or cynomolgus CTLA4 on the surface of the CHO cells were determined using a BD QuantiBRITE™ PE kit.
Finally, saturations of the antibodies on the CHO cells expressing human or cynomolgus CTLA4 at pH 7.4 were also measured by FACS (FIGS. 8A-8B).

[9] = biological target: T1, recombinant human CTLA4 extracellular …; assay: ELISA, wells coated with human CTLA4, assay pH 7.4; lot 6972 in His buffer, T2W; unit from the axis Log[ng/mL]
Description: as §1

[10] = biological target: T1, recombinant human CTLA4 extracellular …; assay: ELISA, wells coated with human CTLA4, assay pH 7.4; lot 6972 in His buffer, T0; unit from the axis Log[ng/mL]
Description: as §1

[11] = biological target: T1, recombinant human CTLA4 extracellular …; assay: ELISA, wells coated with human CTLA4, assay pH 7.4; lot 6972 in Tris buffer, T2W; unit from the axis Log[ng/mL]
Description: as §1

[12] = biological target: T1, recombinant human CTLA4 extracellular …; assay: ELISA, wells coated with human CTLA4, assay pH 6.0; lot 6972 in Glu buffer, T2W; unit from the axis Log[ng/mL]
Description: as §1

[13] = biological target: T2, human CTLA4 expressed on the cell …; assay: FACS, cells expressing human CTLA4, assay pH 7.4, MFI; lot 6972 in His buffer, T2W; unit from the axis Log[ng/mL]
Description: as §2

[14] = biological target: T2, human CTLA4 expressed on the cell …; assay: FACS, cells expressing human CTLA4, assay pH 6.0, MFI; lot 6972 in His buffer, T0; unit from the axis Log[ng/mL]
Description: as §2

EC50 [1]: 0.491 µg/mL
EC50 [2]: 0.014 µg/mL
EC50 [3]: ~0.152 µg/mL
EC50 [4]: 0.176 µg/mL
B1: BA-087-08-32 (antibody, V domains shown)
VH: EVQLVQSGAEVKKPGATVKISCKVSGFTFSHYTMHWIRQSPSRGLEWLGFISYDGNYKYYADSVKGRFTISRDNAKNSLYLQMNSLRAEDTAVYYCARTGWLGPFDYWGQGTLVTVSS
VL: EIVMTQSPATLSVSPGERATLSCRASQSVGSSYLAWYQQKPGKAPKLLIYGAFSRATGVPSRFSGSGSGTDFTLTISSLQPEDFATYYCQQDGSSPWTFGQGTKVEIK
notes: Detected with anti-human IgG and a molecular weight of 146 kDa was used in SPR, so it was tested as a whole IgG; also called BA-087-08-032; BA-087-08-32 (# 6978)

EC50 [5]: 0.681 µg/mL
EC50 [6]: 0.0424 µg/mL
EC50 [7]: 0.462 µg/mL
EC50 [8]: 0.846 µg/mL
EC50 [9]: 0.0758 µg/mL
EC50 [10]: 0.0544 µg/mL
EC50 [11]: 0.0365 µg/mL
EC50 [12]: 0.00266 µg/mL
EC50 [13]: 0.615 µg/mL
EC50 [14]: 0.291 µg/mL
B2: BA-087-05-19 (antibody, V domains shown)
VH: EVQLVESGGGLVQPGGSLRLSCAASGFTFSHYTMHWVRQAPGKGLEWVSFISYDGNNKYYADSVKGRFTISRDNSKNTLYLQMNSLRAEDTAVYYCARTGWLGPFDYWGQGTLVTVSS
VL: AIQLTQSPSSLSASVGDRVTITCRASQYVGSSYLAWYLQKPGQSPQLLIYGAFSRATGIPARFSGSGSGTEFTLTISSLQSEDFAVYYCQQDGSSPWTFGQGTKVEIK
notes: Detected with anti-human IgG and a molecular weight of 146 kDa was used in SPR, so it was tested as a whole IgG; also called BA-087-05-019; BA-087-05-19 (# 6972)
